In the supplement of paper PMC9732359:
± gives the uncertainty stated by the source.

Assay: protein stability index of a GFP-peptide fusion (yeast GPS) (PSI 1-4); higher = more stable; sorted into four equal gates, so the index is relative within each strain
Outline: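 Peptides tiling yeast proteins in 17-residue segments were fused downstream of GFP, with Cherry expressed from the same plasmid. As a pooled library in yeast, mid-log cultures grown in leucine-free medium were sorted into four equal gates by GFP/Cherry fluorescence ratio. Gate plasmids were PCR-amplified and Illumina-sequenced, and barcodes linked reads to strains. Each peptide received a protein stability index equal to the sum of each gate's read frequency times its gate number.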

| Sequence | protein stability index (pdr5∆) | protein stability index (san1∆) | protein stability index (ubr1∆) | protein stability index (doa10∆) |
| --- | --- | --- | --- | --- |
| ILKLLNGFMESAIVNED [SOH1] | 3.27 ± 0.18 | 3.41 ± 0.17 | 3.57 ± 0.22 | – |
| REKRAREKAEAEAEKKK [RPL13A] | 3.62 ± 0.13 | 3.31 ± 0.061 | – | – |
| QNSKFLKVNVTLDNPLL [YJL039C/NUP192] | 2.57 ± 0.083 | 2.91 ± 0.058 | 2.36 ± 0.044 | 2.72 ± 0.088 |
| GGTSLFGNTSTSSAPAQ [YGL172W/NUP49] | 2.19 ± 0.096 | – | 2.15 ± 0.091 | 2.17 ± 0.17 |
| MTVNDQPIEKNGDKMPL [YJR042W/NUP85] | 3.04 ± 0.068 | 2.45 ± 0.086 | 3.1 ± 0.042 | 2.73 ± 0.066 |
| GINNLSEIWDVSRGQSA [PRP8] | 2.67 ± 0.12 | 2.74 ± 0.29 | 2.26 ± 0.073 | 3 ± 0.13 |
| AIRKNGQIDFWYQFSNS [SIN4] | 2.08 ± 0.08 | 1.77 ± 0.082 | 2.52 ± 0.056 | 2.09 ± 0.087 |
| LATAHIYLSRFLIKASV [SSN8] | 1.34 ± 0.051 | 1.31 ± 0.16 | 1.07 ± 0.055 | 1.23 ± 0.042 |
| ENDLSFALMRYYDRKEE [RRI2] | 2.88 ± 0.12 | 2.97 ± 0.071 | 2.98 ± 0.073 | 3.12 ± 0.13 |
| FSKKGNEPLSEIEIEGV [YAR002W/NUP60] | 3.17 ± 0.14 | 3.04 ± 0.08 | 3.15 ± 0.1 | 2.72 ± 0.11 |
| IPVYCFSHPAHQQRMSR [YCG1] | 2.04 ± 0.044 | 1.93 ± 0.046 | 2.04 ± 0.037 | 1.88 ± 0.037 |
| EDFLHFIVAEYIQQKKV [SRB4] | 2.79 ± 0.078 | 2.28 ± 0.1 | 2.9 ± 0.067 | 2.57 ± 0.1 |
| SLLKTKLKQQSSTDIPS [RRI1] | 2.4 ± 0.054 | 2.21 ± 0.082 | 2.44 ± 0.062 | 2.15 ± 0.05 |
| YHRLSNKDMIKNLVKVL [CSN12] | 2.97 ± 0.19 | 1.41 ± 0.25 | – | 3.21 ± 0.26 |
| FEKKELQEKFLNQIATL [IRR1] | 1.23 ± 0.057 | 1.15 ± 0.1 | 1.04 ± 0.062 | 1.08 ± 0.056 |
| SPKPYAVKYGLNHVVAL [RPL8A] | 2.42 ± 0.06 | 2.44 ± 0.071 | 2.08 ± 0.044 | 2.22 ± 0.066 |
| ELLSKYKEQIIQGFYWA [SNU114] | 2.4 ± 0.067 | 2.47 ± 0.077 | 2.17 ± 0.085 | 2.99 ± 0.073 |
| PLHLIFAQPVADIENST [SSN2] | 2.51 ± 0.097 | 2.72 ± 0.13 | 2.67 ± 0.1 | 2.67 ± 0.078 |
| NSRGKFDDACNQIWNIA [SSN2] | 3.01 ± 0.1 | 2.87 ± 0.12 | 3.09 ± 0.14 | 3.04 ± 0.15 |
| KGNLLEGKKVMAPYLPG [RPN2] | 1.95 ± 0.042 | 2.03 ± 0.068 | 2.14 ± 0.045 | 2.14 ± 0.061 |
| MTTFYKCVNCGHRWKEN [RPC11] | 2.66 ± 0.071 | 2.22 ± 0.15 | 2.74 ± 0.071 | 2.82 ± 0.16 |
| DDVRRAAVIALGFVLLR [RPN2] | 2.09 ± 0.075 | 1.99 ± 0.13 | 1.8 ± 0.082 | 1.86 ± 0.14 |
| VDFACCTNLTNRTLYEL [GRR1] | 2.71 ± 0.061 | 2.26 ± 0.06 | 2.73 ± 0.044 | 2.72 ± 0.061 |
| LFMKSLIENCKKRNMPL [SWI1] | 2.72 ± 0.068 | 2.83 ± 0.045 | 2.82 ± 0.042 | 2.68 ± 0.053 |
| EPNSAKKIRFLQLIIFL [RGR1] | 2.42 ± 0.1 | 2.89 ± 0.3 | – | 1.66 ± 0.11 |
| SKDGLPNKVKTEDIRIR [RRP6] | 2.91 ± 0.076 | 2.76 ± 0.067 | 2.73 ± 0.046 | 2.67 ± 0.063 |

| Sequence | protein stability index (pdr5∆) | protein stability index (san1∆) | protein stability index (ubr1∆) | protein stability index (doa10∆) |
| --- | --- | --- | --- | --- |
| PGTVLILLAGRFRGKRV [RPL6A] | 1.83 ± 0.069 | 1.66 ± 0.11 | 2.19 ± 0.073 | 1.61 ± 0.066 |
| DISATQLPKQLWRNFCR [ITC1] | 2.68 ± 0.048 | 2.71 ± 0.035 | 2.8 ± 0.036 | 2.61 ± 0.054 |
| QQLLKGLSLSFSKKLDL [DSN1] | 3.1 ± 0.088 | 2.74 ± 0.069 | 3.16 ± 0.075 | 3.13 ± 0.076 |
| TPAELVGKFLGYVSSLV [FAS1] | 2.04 ± 0.085 | 1.73 ± 0.081 | 2.06 ± 0.055 | 1.93 ± 0.064 |
| TLGNQMLSAHNIIESIA [YJR042W/NUP85] | 2.58 ± 0.073 | 2.53 ± 0.14 | 2.79 ± 0.072 | 2.33 ± 0.097 |
| NTILNSSSDFRLHYYPK [BRR2] | 3.17 ± 0.067 | 2.81 ± 0.048 | 3.11 ± 0.042 | 2.75 ± 0.054 |
| STLGDCLGIKDEEMLTS [GAL11] | 3.11 ± 0.13 | 2.81 ± 0.062 | 3.04 ± 0.088 | 3.17 ± 0.18 |
| LPLRLQFNEFIQIMANI [PGD1] | 1.51 ± 0.088 | 1.28 ± 0.14 | 1.17 ± 0.084 | 1.52 ± 0.078 |
| MNRRKIAMPKRRMAFKP [YLR335W/NUP2] | 2.35 ± 0.14 | 2.91 ± 0.071 | 3.13 ± 0.13 | 2.71 ± 0.076 |
| KTCIQGINSPLSSVALR [YJL039C/NUP192] | 1.41 ± 0.25 | – | – | – |
| IHTQLSEIKQQINKAQI [YJL039C/NUP192] | 2.8 ± 0.18 | 2.81 ± 0.13 | 3.12 ± 0.2 | 2.73 ± 0.12 |
| AVAVGNVEMEEDVLVNQ [RPL1A] | 2.17 ± 0.075 | 1.17 ± 0.11 | 2 ± 0.059 | 2.19 ± 0.091 |
| ENPTDNFIIWINSIDTT [GRR1] | 2.51 ± 0.053 | 2.61 ± 0.049 | 2.74 ± 0.048 | 2.44 ± 0.045 |
| NENNNNSSEKNNNNNNN [MED2] | 2.96 ± 0.065 | 3.04 ± 0.071 | 2.95 ± 0.07 | 2.91 ± 0.066 |
| HILPEVPPVENFPVRQW [TAF14] | 3.05 ± 0.088 | 2.95 ± 0.073 | 3.05 ± 0.055 | 2.71 ± 0.12 |
| LFAESHDVLQKLNTLSE [YML103C/NUP188] | 3.17 ± 0.072 | 3.06 ± 0.065 | 3 ± 0.05 | 2.77 ± 0.067 |
| IKEKFDEFIKTHEDLPK [IRR1] | 2.68 ± 0.095 | 2.62 ± 0.065 | 3.01 ± 0.071 | 2.7 ± 0.1 |
| EQQLFEIFAFGNIKDLP [CSN9] | 2.97 ± 0.06 | 2.96 ± 0.035 | 2.86 ± 0.035 | 2.88 ± 0.076 |
| SEFANQNQGGAQAPFDI [ROX3] | – | 3.28 ± 0.22 | 3.48 ± 0.094 | – |
| VLVGSCAYTGTGDVLLI [RPN1] | 3.35 ± 0.067 | 3.41 ± 0.13 | 3.1 ± 0.075 | 3.13 ± 0.094 |
| QVENMKWDFAKDIKGYG [PRE4] | 1.54 ± 0.082 | 1.41 ± 0.16 | 1.68 ± 0.049 | 2.03 ± 0.078 |
| ERGQKVKNVKNSDLEFN [ARP9] | 1.96 ± 0.09 | 2.17 ± 0.18 | 1.25 ± 0.072 | 3 ± 0.18 |
| ADVYAKALEGKDLKEIL [RPP1B] | – | 3.51 ± 0.14 | 3.36 ± 0.2 | 3.45 ± 0.22 |
| QLDSKLMVFNDDTKNQD [YGR119C/NUP57] | 2.75 ± 0.054 | 2.6 ± 0.057 | 2.91 ± 0.045 | 2.93 ± 0.062 |
| VKFYEIFNFDQLVEITE [SRB8] | 1.35 ± 0.088 | 1.58 ± 0.14 | 1.37 ± 0.058 | 1.24 ± 0.11 |
| TLSHLRRTNTPIGRDGK [RPB2] | 2.26 ± 0.038 | 2.24 ± 0.057 | 2.08 ± 0.036 | 2.14 ± 0.043 |
